Nine molecules from patent US20210388102A1 (IMMUNOGEN, published 2021) can be followed below.

Substitutions are numbered along the chain they refer to. Some results are limits rather than exact numbers.

Experiment [1] addresses T1, human ADAM9 (huADAM9) on cells (human, UniProt Q13443 206-819).
T1 construct: The pro-domain is said to be cleaved (Arg-205/Ala-206) in the mature protein; also called Cho-K/huADAM9; Cho-K/hu ADAM9.2
T1 sequence: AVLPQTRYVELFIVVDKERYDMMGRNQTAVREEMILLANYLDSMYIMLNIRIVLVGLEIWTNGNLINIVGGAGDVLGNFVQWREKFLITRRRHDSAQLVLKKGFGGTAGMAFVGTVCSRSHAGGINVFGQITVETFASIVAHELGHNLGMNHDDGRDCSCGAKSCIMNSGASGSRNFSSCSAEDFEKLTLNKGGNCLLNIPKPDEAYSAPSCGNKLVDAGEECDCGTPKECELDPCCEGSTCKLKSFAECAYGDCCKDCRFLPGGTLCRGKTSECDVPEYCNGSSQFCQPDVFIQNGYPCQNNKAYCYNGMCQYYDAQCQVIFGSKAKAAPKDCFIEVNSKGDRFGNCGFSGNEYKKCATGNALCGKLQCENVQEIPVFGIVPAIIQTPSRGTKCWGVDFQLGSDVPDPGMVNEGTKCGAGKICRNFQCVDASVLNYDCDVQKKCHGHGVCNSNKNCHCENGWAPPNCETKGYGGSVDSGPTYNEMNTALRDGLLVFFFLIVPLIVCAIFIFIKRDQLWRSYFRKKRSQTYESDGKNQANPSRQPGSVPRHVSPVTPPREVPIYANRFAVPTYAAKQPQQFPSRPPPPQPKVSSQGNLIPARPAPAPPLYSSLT
As to the kind of experiment: FACS, 300-19 cells expressing human ADAM9. In general terms: A flow cytometer gives signals particle by particle.
Description: (§1) To evaluate the consequence of conjugation on antigen binding, the relative binding affinity of each anti-ADAM9 immunoconjugate and its respective unconjugated antibody to ADAM9 was determined by FACS analysis on 300-19 cells ectopically-expressing either human ADAM9 or cynomolgus ADAM9. Briefly, the ADAM9-expressing 300-19 cells were incubated with dilution series of anti-ADAM9 antibodies or immunoconjugates for 30 min @ 4° C. in FACS buffer (PBS, 0.1% BSA, 0.01% NaN₃), Samples were then washed and incubated with fluorescently-labeled secondary antibody for 30 minutes at 4° C. The normalized mean of fluorescence intensity at each concentration was plotted and the EC50 of binding was calculated using a nonlinear regression analysis (GraphPad Prims 4.0).

For experiment [2], the target named is T2, cynomolgus monkey ADAM9 (cynoADAM9) on cells (cynomolgus monkey, UniProt Q13443 206-819 (human entry)).
T2 construct: also called Cho-K/cynoADAM9 clone 2; Cho-K/cynoADAM9 clone #16
T2 chain: T1 sequence with V69A, Q130H, G421D, V441I, S521R, G546V, A569P
As to the kind of experiment: FACS, EC50 on 300-19 cynoADAM9 cells over EC50 on 300-19 huADAM9 cells.
Description: as §1

Experiment [3] concerns the target T1, human ADAM9 (huADAM9) on cells. As to the kind of experiment: cell-based or functional assay.
The target in experiment [4] is T2, cynomolgus monkey ADAM9 (cynoADAM9) on …. Nature of the experiment: FACS, 300-19 cells expressing cynomolgus ADAM9.
Description: as §1
Experiment [5] has as its target T3, His-tagged soluble human ADAM9 (shADAM9-His) (human, UniProt Q13443 206-697).
T3 construct: Contains an extracellular portion of human ADAM9; also called huADAM9-His; His peptide-tagged soluble huADAM9
T3 sequence: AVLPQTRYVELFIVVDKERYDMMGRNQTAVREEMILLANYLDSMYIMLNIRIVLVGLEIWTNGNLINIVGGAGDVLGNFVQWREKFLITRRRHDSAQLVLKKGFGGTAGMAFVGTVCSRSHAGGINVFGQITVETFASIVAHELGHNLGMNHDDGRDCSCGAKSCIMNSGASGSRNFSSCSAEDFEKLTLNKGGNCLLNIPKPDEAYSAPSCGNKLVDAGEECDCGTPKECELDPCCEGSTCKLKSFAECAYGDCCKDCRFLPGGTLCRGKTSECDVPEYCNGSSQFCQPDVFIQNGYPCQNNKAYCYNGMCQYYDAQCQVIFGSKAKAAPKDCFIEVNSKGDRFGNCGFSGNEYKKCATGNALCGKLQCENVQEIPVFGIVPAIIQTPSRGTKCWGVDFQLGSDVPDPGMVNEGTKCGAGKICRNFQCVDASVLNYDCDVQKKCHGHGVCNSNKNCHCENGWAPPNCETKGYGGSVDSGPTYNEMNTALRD
As to the kind of experiment: SPR (BIACORE), antibody captured, huADAM9-His in flow. On the technique in general: Surface plasmon resonance follows binding to a sensor surface in real time, without labels.
Description: The kinetics of binding were determined via BIACORE® analysis binding (normalized 1:1 Langmuir binding model).

B1: hMAB-A(2.2)-DGN549 (antibody, human IgG1, kappa, V domains shown)
VH: EVQLVESGGGLVKPGGSLRLSCAASGFTFSSYWMHWVRQAPGKGLEWVGEIIPIFGHTNYNEKFKSRFTISLDNSKNTLYLQMGSLRAEDTAVYYCARGGYYYYGSRDYFDYWGQGTTVTVSS
VL: DIVMTQSPDSLAVSLGERATISCKASQSVDYSGDSYMNWYQQKPGQPPKLLIYAASDLESGIPARFSGSGSGTDFTLTISSLEPEDFATYYCQQSHEDPFTFGQGTKLEIKR
modifications: lysine-linked DGN549, sites not given; DGN549-L (compound D2) linked to lysine residues of the antibody, sites not given; average 2.7 mol DGN549/mol antibody
Molecule B1 gave an EC50 in experiment [1] of 1.55 nM. Besides, in experiment [2], the “cyno/human (ratio of EC50)” value was found to be 14. In addition, in experiment [3], the “Fold-specificity (IC50 control ADC/IC50 anti-ADAM9 ADC), A498” value was over 1000 fold; the “Fold-specificity (IC50 control ADC/IC50 anti-ADAM9 ADC), DLD-1” value is over 1000 fold; the “Fold-specificity (IC50 control ADC/IC50 anti-ADAM9 ADC), DU145” value is over 1000 fold; the “Fold-specificity (IC50 control ADC/IC50 anti-ADAM9 ADC), HPAF2” value is over 1000 fold. In experiment [3], the “Fold-specificity (IC50 control ADC/IC50 anti-ADAM9 ADC), HS578T” value was over 1000 fold; the “Fold-specificity (IC50 control ADC/IC50 anti-ADAM9 ADC), IGROV1” value is over 1000 fold; the “Fold-specificity (IC50 control ADC/IC50 anti-ADAM9 ADC), KATO III” value is over 1000 fold; the “Fold-specificity (IC50 control ADC/IC50 anti-ADAM9 ADC), NCI-H1703” value is over 1000 fold. In experiment [3], the “In Vitro Cytotoxicity (IC50 nM), A498” value worked out at 0.001 nM; the “In Vitro Cytotoxicity (IC50 nM), DLD-1” value turned out to be 0.01 nM; the “In Vitro Cytotoxicity (IC50 nM), DU145” value stood at 0.002 nM; the “In Vitro Cytotoxicity (IC50 nM), HPAF2” value amounted to 0.043 nM. In addition, in experiment [3], the “In Vitro Cytotoxicity (IC50 nM), HS578T” value stood at 0.009 nM; the “In Vitro Cytotoxicity (IC50 nM), IGROV1” value turned out to be 0.001 nM; the “In Vitro Cytotoxicity (IC50 nM), KATO III” value turned out to be 0.031 nM; the “In Vitro Cytotoxicity (IC50 nM), NCI-H1703” value came out at 0.002 nM. Also, in experiment [4], a half-maximal effect (EC50) was put at 22.3 nM.

B2: hMAB-A(2.2)-sSPDB-DM4 (antibody, human IgG1, kappa, V domains shown)
VH: B1 VH
VL: B1 VL
modifications: lysine-linked DM4, sites not given; DM4 linked through sulfo-SPDB to lysine residues of the antibody, sites not given; average 3.2 mol DM4/mol antibody
notes: also called huMAB-A(2.2)-sSPDB-DM4
On to B2, for which, in experiment [1], the EC50 amounted to 1.11 nM. In addition, the “cyno/human (ratio of EC50)” value in experiment [2] came to 12. In experiment [3], the “Fold-specificity (IC50 control ADC/IC50 anti-ADAM9 ADC), A498” value is 27 fold; the “Fold-specificity (IC50 control ADC/IC50 anti-ADAM9 ADC), DLD-1” value amounted to 9 fold; the “Fold-specificity (IC50 control ADC/IC50 anti-ADAM9 ADC), DU145” value came out at 25 fold; the “Fold-specificity (IC50 control ADC/IC50 anti-ADAM9 ADC), HPAF2” value was found to be 9 fold. Further, in experiment [3], the “Fold-specificity (IC50 control ADC/IC50 anti-ADAM9 ADC), HS578T” value turned out to be 16 fold; the “Fold-specificity (IC50 control ADC/IC50 anti-ADAM9 ADC), IGROV1” value was determined as 3 fold; the “Fold-specificity (IC50 control ADC/IC50 anti-ADAM9 ADC), KATO III” value is 5 fold; the “Fold-specificity (IC50 control ADC/IC50 anti-ADAM9 ADC), NCI-H1703” value is 152 fold. In experiment [3], the “In Vitro Cytotoxicity (IC50 nM), A498” value is 0.119 nM; the “In Vitro Cytotoxicity (IC50 nM), DLD-1” value was 2.73 nM; the “In Vitro Cytotoxicity (IC50 nM), DU145” value came out at 0.57 nM; the “In Vitro Cytotoxicity (IC50 nM), HPAF2” value came out at 0.622 nM. In experiment [3], the “In Vitro Cytotoxicity (IC50 nM), HS578T” value is 0.119 nM; the “In Vitro Cytotoxicity (IC50 nM), IGROV1” value was 4.08 nM; the “In Vitro Cytotoxicity (IC50 nM), KATO III” value came to 1.15 nM; the “In Vitro Cytotoxicity (IC50 nM), NCI-H1703” value was 0.024 nM. The molecule further showed an EC50 in experiment [4] of 13.3 nM.

B3: hMAB-A (2B.2) (antibody, V domains shown)
VH: B1 VH with G105I, S106G, R107K, D108G, Y109V, F110L
VL: DIVMTQSPDSLAVSLGERATISCKASQSVDYSGDSYMNWYQQKPGQPPKLLIYAASDLESGIPARFSGSGSGTDFTLTISSLEPEDFATYYCQQSHEDPFTFGQGTKLEIK
notes: also called MAB-A VH(2B); MAB-A VH(2B.2)
Take B3: in experiment [5], the Kd amounted to 0.6 nM, the koff came to 0.00039 s⁻¹ and the kon is 610000 M⁻¹ s⁻¹.

B4: hMAB-A(2C.2)-sSPDB-DM4 (antibody, human IgG1, kappa, V domains shown)
VH: B1 VH with G105P, S106R, R107F, D108G, Y109W, F110L
VL: B1 VL
modifications: lysine-linked DM4, sites not given; DM4 linked through sulfo-SPDB to lysine residues of the antibody, sites not given; average 3.2 mol DM4/mol antibody
Consider B4, for which the concentration giving a half-maximal response (EC50) in experiment [1] worked out at 1.5 nM; in experiment [4] it was 4.4 nM. Besides, the “cyno/human (ratio of EC50)” value in experiment [2] came out at 3.

B5: hMAB-A(2C.2)-DGN549 (antibody, human IgG1, kappa, V domains shown)
VH: B1 VH with G105P, S106R, R107F, D108G, Y109W, F110L
VL: B1 VL
modifications: lysine-linked DGN549, sites not given; DGN549-L (compound D2) linked to lysine residues of the antibody, sites not given; average 2.8 mol DGN549/mol antibody
On to B5, for which the results for the EC50 in experiment [1] and in experiment [4] were 1.99 nM and 5.6 nM, respectively. For the same molecule, the “cyno/human (ratio of EC50)” value in experiment [2] amounted to 3.

B6: hMAB-A (2D.2) (antibody, V domains shown)
VH: B1 VH with G105T, S106G, R107K, D108G, Y109V, F110L
VL: B3 VL
notes: also called MAB-A VH(2D); MAB-A VH(2D.2)
For the molecule B6, in experiment [5], the Kd was determined as 0.8 nM, the dissociation rate constant (koff) amounted to 0.00058 s⁻¹ and the kon is 690000 M⁻¹ s⁻¹.

B7: hMAB-A(2I.2)-DGN549 (antibody, human IgG1, kappa)
heavy: not shown
light: DIVMTQSPDSLAVSLGERATISCKASQSVDYSGDSYMNWYQQKPGQPPKLLIYAASDLESGIPARFSGSGSGTDFTLTISSLEPEDFATYYCQQSHEDPFTFGQGTKLEIKRTVAAPSVFIFPPSDEQLKSGTASVVCLLNNFYPREAKVQWKVDNALQSGNSQESVTEQDSKDSTYSLSSTLTLSKADYEKHKVYACEVTHQGLSSPVTKSFNRGEC
modifications: lysine-linked DGN549, sites not given; DGN549-L (compound D2) linked to lysine residues of the antibody, sites not given; average 2.8 mol DGN549/mol antibody
Take B7: the values for the EC50 in experiment [1] and in experiment [4] were 2.25 nM and 6.6 nM, respectively. Moreover, the “cyno/human (ratio of EC50)” value in experiment [2] is 3.

B8: chMAB-A-sSPDB-DM4 (antibody, V domains shown)
VH: QVQLQQPGAELVKPGASVKLSCKASGYTFTSYWMHWVKQRPGQGLEWIGEIIPINGHTNYNEKFKSKATLTLDKSSSTAYMQLSSLASEDSAVYYCARGGYYYYGSRDYFDYWGQGTTLTVSS
VL: DIVLTQSPASLAVSLGQRATISCKASQSVDYDGDSYMNWYQQIPGQPPKLLIYAASDLESGIPARFSGSGSGTDFTLNIHPVEEEDAATYYCQQSHEDPFTFGGGTKLEIK
modifications: lysine-linked DM4, sites not given; DM4 linked through sulfo-SPDB to lysine residues of the antibody, sites not given; average 3.4 mol DM4/mol antibody
For the molecule B8, the EC50 in experiment [1] is 0.95 nM; in experiment [4] it was 275 nM. The “cyno/human (ratio of EC50)” value in experiment [2] was 290.

B9: chMAB-A-DGN549 (antibody, V domains shown)
VH: B8 VH
VL: B8 VL
modifications: lysine-linked DGN549, sites not given; DGN549-L (compound D2) linked to lysine residues of the antibody, sites not given; average 2.7 mol DGN549/mol antibody
On to B9, for which the concentration giving a half-maximal response (EC50) was determined as 1.24 nM in experiment [1] and 153 nM in experiment [4]. In experiment [2], the “cyno/human (ratio of EC50)” value is 123.

Usually EC50 stands for the concentration giving half of the maximal effect. Broadly, the Kd is the equilibrium constant for the complex coming apart. In general, koff refers to the first-order rate constant of dissociation. The term kon denotes the rate constant with which the complex forms.
